Source: patent publication US20260184782A1 (TWIST BIOSCIENCE, published 2026)
Substitutions are numbered along the chain they refer to.

T1: recombinant human TIGIT (human, UniProt Q495A1 22-141, limits assumed)
T1 construct: recombinant human TIGIT used in Carterra SPR; also called hTIGIT
T1 sequence (looked up): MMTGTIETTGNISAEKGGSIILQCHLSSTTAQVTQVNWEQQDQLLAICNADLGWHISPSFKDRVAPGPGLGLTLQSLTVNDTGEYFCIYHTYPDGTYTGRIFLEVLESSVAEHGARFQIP

B1: TIGIT-SC106 (Fc fusion)
VHH: EVQLVESGGGLVQPGGSLRLSCAASGFPFDDYAMGWFRQAPGKERELVAVIRWTGMSTHYADSVKGRFTISADNSKNTAYLQMNSLKPEDTAVYYCAKGIAVAGAFDYWGQGTLVTVSS
notes: VHH-Fc fusion in assay
B2: TIGIT-SC55 (Fc fusion)
VHH: B1 VHH with S57N
notes: VHH-Fc fusion in assay
B3: TIGIT-SC7 (Fc fusion)
VHH: EVQLVESGGGLVQPGGSLRLSCAASGRSFSMYVMGWFRQAPGKEREGVSFISGSDGSTLYADSVKGRFTISADNSKNTAYLQMNSLKPEDTAVYYCARGSIAARPVFFDYWGQGTLVTVSS
notes: VHH-Fc fusion in assay
B4: TIGIT-SC49 (Fc fusion)
VHH: EVQLVESGGGLVQPGGSLRLSCAASGRTFIGYHMGWFRQAPGKEREFVAAISWTGESTLYADSVKGRFTISADNSKNTAYLQMNSLKPEDTAVYYCARDDYGDYRRYFQHWGQGTLVTVSS
notes: VHH-Fc fusion in assay
B5: TIGIT-SC208 (Fc fusion)
VHH: EVQLVESGGGLVQPGGSLRLSCAASGFLFDSYVMGWFRQAPGKEREFVAAIWRSGTLKAYADSVKGRFTISADNSKNTEYLQMNSLKPEDTAVYYCARDDYGDTRRYFQHWGQGTLVTVSS
notes: VHH-Fc fusion in assay
B6: TIGIT-SC207 (Fc fusion)
VHH: B5 VHH with L28A, D30S
notes: VHH-Fc fusion in assay
B7: TIGIT-SC209 (Fc fusion)
VHH: B5 VHH with D30N, V33W, T104Y, R106I
notes: VHH-Fc fusion in assay
B8: TIGIT-SC69 (Fc fusion)
VHH: EVQLVESGGGLVQPGGSLRLSCAASGGTFNGRAMGWFRQAPGKEREFVAAISSIGDTYYADSVKGRFTISADNSKNTAYLQMNSLKPEDTAVYYCARWRLDRRQGFYYAMDVWGQGTLVTVSS
notes: VHH-Fc fusion in assay
B9: TIGIT-SC9 (Fc fusion)
VHH: EVQLVESGGGLVQPGGSLRLSCAASGNTFSGGFMGWFRQAPGKEREWVASVLRGGYTWYADSVKGRFTISADNSKNTAYLQMNSLKPEDTAVYYCVNGYSYGRDYWGQGTLVTVSS
notes: VHH-Fc fusion in assay
B10: TIGIT-SC43 (Fc fusion)
VHH: EVQLVESGGGLVQPGGSLRLSCAASGFTFADYAMGWFRQAPGKEREMVAAIGWNSGTTEYADSVKGRFTISADNSKNTAYLQMNSLKPEDTAVYYCARDTNGWFFDFWGQGTLVTVSS
notes: VHH-Fc fusion in assay
B11: TIGIT-SC76 (Fc fusion)
VHH: EVQLVESGGGLVQPGGSLRLSCAASGFTFSDYAMGWFRQAPGKERELVARIGHDGSTDYADSVKGRFTISADNSKNTAYLQMNSLKPEDTAVYYCLGGLDPWGQGTLVTVSS
notes: VHH-Fc fusion in assay
B12: TIGIT-SC179 (Fc fusion)
VHH: EVQLVESGGGLVQPGGSLRLSCAASGFTFSPSWMGWFRQAPGKEREWVASVLRGGYTWYADSVKGRFTISADNSKNTAYLQMNSLKPEDTAVYYCASEVASGETDYWGQGTLVTVSS
notes: VHH-Fc fusion in assay
B13: TIGIT-SC168 (Fc fusion)
VHH: EVQLVESGGGLVQPGGSLRLSCAASGFTFDRSWMGWFRQAPGKEREWVASVLRGGYAWYADSVKGRFTISADNSKNTAYLQMSSLKPEDTAVYYCAREGSGYASDYWGQGTLVTVSS
notes: VHH-Fc fusion in assay
B14: TIGIT-SC184 (Fc fusion)
VHH: EVQLVESGGGLVQPGGSLRLSCAASGFTFSPSWMGWFRQAPGKEREWVASVLRGGYTWYADSVKGRFTISADNSKNTAYLQMNSLKPEDTAVYYCTTDRGYNWNYDWGQGTLVTVSS
notes: VHH-Fc fusion in assay
B15: TIGIT-SC166 (Fc fusion)
VHH: B13 VHH with A57T, S83N
notes: VHH-Fc fusion in assay
B16: TIGIT-SC163 (Fc fusion)
VHH: B13 VHH with A57T, S83N, R97T, E98D, G99K, S100R, Y102P, A103H, S104P
notes: VHH-Fc fusion in assay
B17: TIGIT-SC178 (Fc fusion)
VHH: B12 VHH with F29L
notes: VHH-Fc fusion in assay
B18: TIGIT-SC71 (Fc fusion)
VHH: EVQLVESGGGLVQPGGSLRLSCAASGSIRSLNAMGWFRQAPGKEREFVAAINWDSARTYYADSVKGRFTISADNSKNTAYLQMNSLKPEDTAVYYCARWSAKRHSDTMTYYMDVWGQGTLVTVSS
notes: VHH-Fc fusion in assay
B19: TIGIT-SC70 (Fc fusion)
VHH: EVQLVESGGGLVQPGGSLRLSCAASGRTFSSFAMGWFRQAPGKEREFVAAISGSGEDTYYADSVKGRFTISADNSKNTAYLQMNSLKPEDTAVYYCARWRLDRRQGFYYAMDVWGQGTLVTVSS
notes: VHH-Fc fusion in assay
B20: TIGIT-SC103 (Fc fusion)
VHH: EVQLVESGGGLVQPGGSLRLSCAASGTITSAVFMGWFRQAPGKEREFVAAISWSGGDTNYADSVKGRFTISADNSKNTAYLQMNSLKPEDTAVYYCARWGGITFGGVYPLDYWGQGTLVTVSS
notes: VHH-Fc fusion in assay
B21: TIGIT-SC211 (Fc fusion)
VHH: EVQLVESGGGLVQPGGSLRLSCAASGFSFSMYVMGWFRQAPGKEREFVAAIWRSGTLKAYADSVKGRFTISADNSKNTAYLQMNSLKPGDTAVYYCARDHRAMVAPFDYWGQGTLVTVSS
notes: VHH-Fc fusion in assay
B22: TIGIT-SC104 (Fc fusion)
VHH: EVQLVESGGGLVQPGGSLRLSCAASGFTFSTYTMGWFRQAPGKEREFVAAISPSGNTYYADSVKGRFTISADNSKNTAYLQMNSLKPEDTAVYYCARWGGITFGGVYPLDYWGQGTLVTVSS
notes: VHH-Fc fusion in assay
B23: TIGIT-SC100 (Fc fusion)
VHH: EVQLVESGGGLVQPGGSLRLSCAASGRTLSDRAMGWFRQAPGKEREFVAAITDNGGSTYYADSVKGRFTISADNSKNTAYLQMNSLKPEDTAVYYCARWYSSSGDYYYMDVWGQGTLVTVSS
notes: VHH-Fc fusion in assay
B24: TIGIT-SC101 (Fc fusion)
VHH: B23 VHH with L29F, D31S, R32Y, T52D, D53W, N54S, G55D
notes: VHH-Fc fusion in assay
B25: TIGIT-SC74 (Fc fusion)
VHH: EVQLVESGGGLVQPGGSLRLSCAASGRTFANNAMGWFRQAPGKEREFVAAINWSGGNTYYADSVKGRFTISADNSKNTAYLQMNSLKPEDTAVYYCAKWSYYGSGLYGMDVWGQGTLVTVSS
notes: VHH-Fc fusion in assay
B26: TIGIT-SC82 (Fc fusion)
VHH: B25 VHH with R27S, T28M, F29S, A30S, N32Y, N52D, S100F, G108T, M109L
notes: VHH-Fc fusion in assay
B27: TIGIT-SC75 (Fc fusion)
VHH: B25 VHH with R27F, T28I, F29G, A30N, N31Y, N32H, N52R, G55D, N57S, T58S
notes: VHH-Fc fusion in assay
B28: TIGIT-SC83 (Fc fusion)
VHH: B25 VHH with A30S, N31D, N32D, N52S, W53R, S100F, G108T, M109L
notes: VHH-Fc fusion in assay
B29: TIGIT-SC122 (Fc fusion)
VHH: EVQLVESGGGLVQPGGSLRLSCAASGFSFDDYVMGWFRQAPGKEREFVAAISMSGGYTHYADSVKGRFTISADNSKNTAYLQMNSLKPEDTAVYYCAREGYYGSGSYLVYWGQGTLVTVSS
notes: VHH-Fc fusion in assay
B30: TIGIT-SC123 (Fc fusion)
VHH: B29 VHH with F27S, S28I, D30S, D31G, Y32N, V33T, M53W, G56A, H59E
notes: VHH-Fc fusion in assay
B31: TIGIT-SC8 (Fc fusion)
VHH: EVQLVESGGGLVQPGGSLRLSCAASGFAFSSYAMGWFRQAPGKEREFVARITWNGGSAYYADSVKGRFTISADNSKNTAYLQMNSLKPEDTAVYYCAAGATGWFDPWGQGTLVTVSS
notes: VHH-Fc fusion in assay
B32: TIGIT-SC40 (Fc fusion)
VHH: EVQLVESGGGLVQPGGSLRLSCAASGFSFDRWAMGWFRQAPGKERELVARISWNGGSTYYADSVKGRFTISADNSKNTAYLQMNSLKPEDTAVYYCARDDGWLQFMHWGQGTLVTVSS
notes: VHH-Fc fusion in assay

These binders were tested against T1, recombinant human TIGIT (assay: SPR Carterra, average).
Protocol: Binding affinities of VHH-Fc proteins to recombinant human TIGIT were measured by SPR using a Carterra instrument (Table 10A). […] Average values reported from measurements from 1-2 samples.

Row | Binder | Kd [nM] | koff [s⁻¹] | kon [M⁻¹ s⁻¹]
1 | B1 | 7.99 | 0.000753 | 95500
2 | B2 | 28.5 | 0.00231 | 90600
3 | B3 | 12.1 | 0.00372 | 306000
4 | B4 | 14.4 | 0.00102 | 129000
5 | B5 | 851 | 0.196 | 231000
6 | B6 | 12.2 | 0.00371 | 528000
7 | B7 | 41.4 | 0.000625 | 15100
8 | B8 | 12.6 | 0.00276 | 219000
9 | B9 | 9.35 | 0.00159 | 268000
10 | B10 | 12 | 0.0013 | 112000
11 | B11 | 7.64 | 0.00717 | 938000
12 | B12 | 51.1 | 0.00269 | 50400
13 | B13 | 83.6 | 0.00254 | 30400
14 | B14 | 12.7 | 0.014 | 1.11e+06
15 | B15 | 24.9 | 0.00147 | 58400
16 | B16 | 86.4 | 0.00269 | 38400

Row | Binder | Kd [nM] | koff [s⁻¹] | kon [M⁻¹ s⁻¹]
17 | B17 | 296 | 0.0776 | 262000
18 | B18 | 10.5 | 0.00436 | 413000
19 | B19 | 11.2 | 0.00359 | 321000
20 | B20 | 34.3 | 0.00498 | 145000
21 | B21 | 13 | 8.53e-05 | 6540
22 | B22 | 15.2 | 0.00375 | 247000
23 | B23 | 15.1 | 0.00183 | 122000
24 | B24 | 73.4 | 0.00421 | 67800
25 | B25 | 18 | 0.00329 | 183000
26 | B26 | 57 | 0.00324 | 56700
27 | B27 | 7.44 | 0.000376 | 50500
28 | B28 | 29.1 | 0.00378 | 132000
29 | B29 | 10.7 | 0.00217 | 524000
30 | B30 | 47.3 | 0.00232 | 49100
31 | B31 | 14.6 | 0.000753 | 156000
32 | B32 | 11.4 | 0.0015 | 137000
